Measured values from PMC9054013, “FCHO controls AP2’s initiating role in endocytosis through a PtdIns(4,5)P2-dependent switch” (Science Advances, 2022).
Values belong to the binder of their own block, whether it stands above or below them.

Biological target: T1, Cμ2 (μ2 residues 160 to 435), P84092
T1 chain: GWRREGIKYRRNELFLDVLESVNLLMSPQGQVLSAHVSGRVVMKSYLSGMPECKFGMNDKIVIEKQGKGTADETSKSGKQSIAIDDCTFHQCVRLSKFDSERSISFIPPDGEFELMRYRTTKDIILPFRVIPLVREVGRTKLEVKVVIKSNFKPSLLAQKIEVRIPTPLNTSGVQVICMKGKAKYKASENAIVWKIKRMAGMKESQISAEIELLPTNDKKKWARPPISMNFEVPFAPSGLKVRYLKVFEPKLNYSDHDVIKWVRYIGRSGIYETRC
Test: ITC
Conditions: chain shown with the change;; parent: 25 ± 1 µM

- Kd: 110 µM
B1: FCHO2-N1+N2 (ITC), Q0JRZ9-1 E320A; E321A; K326A (peptide)
chain: NIPDVDAAGYSIAPETNQNDTKENHFYSSSDSDSEDEEPKKYR

- Kd: 54 µM
B2: FCHO2-N1+N2 (ITC), Q0JRZ9-1 Y340S (protein)
chain: NIPDVDEEGYSIKPETNQNDTKENHFSSSSDSDSEDEEPKKYRIEIKPMHPNNSHHTMASLDELKVSIGNITLSPAISRHS
